Experimental data: PMC3043095

Tests used:
[1] = target: leafhopper actin (Circulifer haematoceps, Ciha-1 cells) (Circulifer haematoceps (endogenous in Ciha-1))
[2] = target: leafhopper actin (Circulifer haematoceps, Ciha-1 cells) (Circulifer haematoceps (endogenous in Ciha-1)); remark: listed apart in the source

“His6-tagged PGK-FL4 (S. citri PGK amino acids 101 to 412) (from UniProt Q7WTU1 101-412) (domain or fragment)” gave a S. citri transmission by infected leafhoppers injected with 0.2 µg PGK-FL4: relative percentage of batches with positive culture (phosphate buffer = 100) (% relative to phosphate buffer control) [1] of 101.

Substance “His6-tagged PGK-FL5 (S. citri PGK amino acids 49 to 154) (from UniProt Q7WTU1 49-154) (domain or fragment)” has a S. citri transmission by infected leafhoppers injected with 0.2 µg PGK-FL5: relative percentage of batches with positive culture (phosphate buffer = 100) (% relative to phosphate buffer control) [1] of 58.6 and a reduction of S. citri internalization into Ciha-1 cells (gentamicin protection assay) after preincubation of cells with 50 and 400 µg/ml PGK-FL5 (45% and 80%) (% reduction of internalization) [2] of 80.

For “Spiroplasma citri phosphoglycerate kinase, His6-tagged, full length (from UniProt Q7WTU1 1-412) (enzyme)”, the S. citri transmission by infected leafhoppers injected with 0.2 µg His6-tagged PGK: relative percentage of batches with positive culture (phosphate buffer = 100) (% relative to phosphate buffer control) [1] was 51.7 and the inhibition of S. citri internalization into Ciha-1 cells (gentamicin protection assay) after preincubation of cells with 400 µg/ml His6-tagged PGK (% inhibition of invasion) [2] was 85.
